Assay results published in patent US20190241648A1 (STATEN BIOTECHNOLOGY B V, published 2019).
Ends that are not written are not given here.

Legend:
Experiment in all cases: peptide microarray
ApoC3 peptide … P69C = target: T1, ApoC3 peptide … P69C (human, not fully specified (bridges); also: cyclic constrained)
T1 peptide: DKFSEFWDLDCEV
Procedure, shortened: (§1)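 ApoC3 peptide microarrays incubated with antibody samples and then stained with goat anti-human IgG (Fc) DyLight680 plus anti-HA DyLight800 control antibody. Scanned at intensity 7/7 (red/green); a secondary-only prestain checked for background, and framing HA peptides served as quality control.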

ApoC3 peptide … D66T = target: T2, ApoC3 peptide … D66T (human, not fully specified (bridges); also: cyclic constrained)
T2 peptide: DKFSEFWTLDPEV
Procedure, shortened: as §1

ApoC3 peptide … L67D = target: T3, ApoC3 peptide … L67D (human, not fully specified (bridges); also: cyclic constrained)
T3 peptide: DKFSEFWDDDPEV
Procedure, shortened: as §1

ApoC3 peptide … S62V = ApoC3 peptide … S62V (human, cyclic constrained)
Procedure, shortened: as §1

ApoC3 peptide … D68T = ApoC3 peptide … D68T (human, cyclic constrained)
Procedure, shortened: as §1

ApoC3 peptide … P69Y = ApoC3 peptide … P69Y (human, cyclic constrained)
Procedure, shortened: as §1

ApoC3 peptide … E70I = target: T4, ApoC3 peptide … E70I (human, not fully specified (bridges); also: cyclic constrained)
T4 peptide: DKFSEFWDLDPIV
Procedure, shortened: as §1

ApoC3 peptide … L67V = target: T5, ApoC3 peptide … L67V (human, not fully specified (bridges); also: cyclic constrained)
T5 peptide: DKFSEFWDVDPEV
Procedure, shortened: as §1

ApoC3 peptide … D59Q = target: T6, ApoC3 peptide … D59Q (human, cyclic constrained)
T6 peptide: QKFSEFWDLDPEV
Procedure, shortened: as §1

ApoC3 peptide … E63V = ApoC3 peptide … E63V (human, cyclic constrained)
Procedure, shortened: as §1

ApoC3 peptide … E70H = target: T7, ApoC3 peptide … E70H (human, not fully specified (bridges); also: cyclic constrained)
T7 peptide: DKFSEFWDLDPHV
Procedure, shortened: as §1

ApoC3 peptide … E63S = ApoC3 peptide … E63S (human, cyclic constrained)
Procedure, shortened: as §1

ApoC3 peptide … F61C = target: T8, ApoC3 peptide … F61C (human, cyclic constrained)
T8 peptide: DKCSEFWDLDPEV
Procedure, shortened: as §1

ApoC3 peptide … P69I = target: T9, ApoC3 peptide … P69I (human, not fully specified (bridges); also: cyclic constrained)
T9 peptide: DKFSEFWDLDIEV
Procedure, shortened: as §1

ApoC3 peptide … V71F = ApoC3 peptide … V71F (human, cyclic constrained)
Procedure, shortened: as §1

ApoC3 peptide … E63I = ApoC3 peptide … E63I (human, cyclic constrained)
Procedure, shortened: as §1

ApoC3 peptide … D66F = target: T10, ApoC3 peptide … D66F (human, not fully specified (bridges); also: cyclic constrained)
T10 peptide: DKFSEFWFLDPEV
Procedure, shortened: as §1

ApoC3 peptide … V71G = ApoC3 peptide … V71G (human, cyclic constrained)
Procedure, shortened: as §1

ApoC3 peptide … F61T = target: T11, ApoC3 peptide … F61T (human, not fully specified (bridges); also: cyclic constrained)
T11 peptide: DKTSEFWDLDPEV
Procedure, shortened: as §1

ApoC3 peptide … F61S = target: T12, ApoC3 peptide … F61S (human, not fully specified (bridges); also: cyclic constrained)
T12 peptide: DKSSEFWDLDPEV
Procedure, shortened: as §1

ApoC3 peptide … L67Q = target: T13, ApoC3 peptide … L67Q (human, not fully specified (bridges); also: cyclic constrained)
T13 peptide: DKFSEFWDQDPEV
Procedure, shortened: as §1

ApoC3 peptide … D68E = target: T14, ApoC3 peptide … D68E (human, cyclic constrained)
T14 peptide: DKFSEFWDLEPEV
Procedure, shortened: as §1

ApoC3 peptide … K60P = target: T15, ApoC3 peptide … K60P (human, not fully specified (bridges); also: cyclic constrained)
T15 peptide: DPFSEFWDLDPEV
Procedure, shortened: as §1

ApoC3 peptide … P69A = target: T16, ApoC3 peptide … P69A (human, not fully specified (bridges); also: cyclic constrained)
T16 peptide: DKFSEFWDLDAEV
Procedure, shortened: as §1

ApoC3 peptide … F61K = target: T17, ApoC3 peptide … F61K (human, not fully specified (bridges); also: cyclic constrained)
T17 peptide: DKKSEFWDLDPEV
Procedure, shortened: as §1

ApoC3 peptide … P69K = target: T18, ApoC3 peptide … P69K (human, not fully specified (bridges); also: cyclic constrained)
T18 peptide: DKFSEFWDLDKEV
Procedure, shortened: as §1

ApoC3 peptide … V71I = ApoC3 peptide … V71I (human, cyclic constrained)
Procedure, shortened: as §1

ApoC3 peptide … V71N = ApoC3 peptide … V71N (human, cyclic constrained)
Procedure, shortened: as §1

ApoC3 peptide … D66Q = target: T19, ApoC3 peptide … D66Q (human, not fully specified (bridges); also: cyclic constrained)
T19 peptide: DKFSEFWQLDPEV
Procedure, shortened: as §1

ApoC3 peptide … V71W = ApoC3 peptide … V71W (human, cyclic constrained)
Procedure, shortened: as §1

ApoC3 peptide … D68H = target: T20, ApoC3 peptide … D68H (human, cyclic constrained)
T20 peptide: DKFSEFWDLHPEV
Procedure, shortened: as §1

ApoC3 peptide … K60T = target: T21, ApoC3 peptide … K60T (human, not fully specified (bridges); also: cyclic constrained)
T21 peptide: DTFSEFWDLDPEV
Procedure, shortened: as §1

ApoC3 peptide … E70C = ApoC3 peptide … E70C (human, cyclic constrained)
Procedure, shortened: as §1

ApoC3 peptide … S62T = ApoC3 peptide … S62T (human, cyclic constrained)
Procedure, shortened: as §1

ApoC3 peptide … L67S = target: T22, ApoC3 peptide … L67S (human, not fully specified (bridges); also: cyclic constrained)
T22 peptide: DKFSEFWDSDPEV
Procedure, shortened: as §1

ApoC3 peptide … S62L = ApoC3 peptide … S62L (human, cyclic constrained)
Procedure, shortened: as §1

ApoC3 peptide … D68L = target: T23, ApoC3 peptide … D68L (human, cyclic constrained)
T23 peptide: DKFSEFWDLLPEV
Procedure, shortened: as §1

ApoC3 peptide … V71L = ApoC3 peptide … V71L (human, cyclic constrained)
Procedure, shortened: as §1

B1: anti-ApoC3 antibody 6A6 (antibody, V domains shown)
VH: EVQLVESGGGLVQPGGSLRLSCAASGFTFSSYAGRWVRQVPGKGLEWVSSINAGGGSTSYADSVKGRFTISRDNAKNTLYLQMNSLKPEDTAKYYCTQNSYRYWGQGTRVAVSS
VL: DVVLTQTPGSLSVVPGESASISCKASQSLIHTDGKTYLYWLLQKPGQRPQLLIYQVSSHESGVPDRFTGSGSGTDFTLKISGVKAEDAGVYYCAQATYNPRTFGQGTKLEIK
notes: it was detected with goat anti-human IgG (Fc); also called mAb 6A6; llama antibody 6A6
Question: With B1 as the binder, how does the “% of binding to wild-type peptide” value (ApoC3 peptide … P69C) read?
Answer: Its value is 28.9%.

Question: What about the “% of binding to wild-type peptide” value (ApoC3 peptide … D66T) of the same binder?
Answer: Its value is 0%.

Question: What about the “% of binding to wild-type peptide” value (ApoC3 peptide … L67D) of the same binder?
Answer: The value was 2.89%.

Question: What about the “% of binding to wild-type peptide” value (ApoC3 peptide … S62V) of the same binder?
Answer: Its value is 93.6%.

Question: What about the “% of binding to wild-type peptide” value (ApoC3 peptide … D68T) of the same binder?
Answer: The value was 0.69%.

Question: And the “% of binding to wild-type peptide” value (ApoC3 peptide … P69Y)?
Answer: The value was 52%.

Question: What about the “% of binding to wild-type peptide” value (ApoC3 peptide … E70I) of the same binder?
Answer: Its value is 1.59%.

Question: What about the “% of binding to wild-type peptide” value (ApoC3 peptide … L67V) of the same binder?
Answer: Its value is 56.5%.

Question: What about the “% of binding to wild-type peptide” value (ApoC3 peptide … D59Q) of the same binder?
Answer: The value was 95%.

Question: What about the “% of binding to wild-type peptide” value (ApoC3 peptide … E63V) of the same binder?
Answer: Its value is 13%.

Question: What about the “% of binding to wild-type peptide” value (ApoC3 peptide … E70H) of the same binder?
Answer: The value was 0.03%.

Question: What about the “% of binding to wild-type peptide” value (ApoC3 peptide … E63S) of the same binder?
Answer: Its value is 35.2%.

Question: And the “% of binding to wild-type peptide” value (ApoC3 peptide … F61C)?
Answer: The value was 20.6%.

Question: And the “% of binding to wild-type peptide” value (ApoC3 peptide … P69I)?
Answer: The value was 81.9%.

Question: And the “% of binding to wild-type peptide” value (ApoC3 peptide … V71F)?
Answer: The value was 85.4%.

Question: And the “% of binding to wild-type peptide” value (ApoC3 peptide … E63I)?
Answer: The value was 8.76%.

Question: And the “% of binding to wild-type peptide” value (ApoC3 peptide … D66F)?
Answer: The value was 7.27%.

Question: And the “% of binding to wild-type peptide” value (ApoC3 peptide … V71G)?
Answer: The value was 109%.

Question: What about the “% of binding to wild-type peptide” value (ApoC3 peptide … F61T) of the same binder?
Answer: Its value is 56.3%.

Question: And the “% of binding to wild-type peptide” value (ApoC3 peptide … F61S)?
Answer: Its value is 39.2%.

Question: And the “% of binding to wild-type peptide” value (ApoC3 peptide … L67Q)?
Answer: The value was 25.7%.

Question: What about the “% of binding to wild-type peptide” value (ApoC3 peptide … D68E) of the same binder?
Answer: The value was 56.9%.

Question: What about the “% of binding to wild-type peptide” value (ApoC3 peptide … K60P) of the same binder?
Answer: Its value is 157%.

Question: What about the “% of binding to wild-type peptide” value (ApoC3 peptide … P69A) of the same binder?
Answer: The value was 57.4%.

Question: What about the “% of binding to wild-type peptide” value (ApoC3 peptide … F61K) of the same binder?
Answer: The value was 37.2%.

Question: What about the “% of binding to wild-type peptide” value (ApoC3 peptide … P69K) of the same binder?
Answer: Its value is 26.3%.

Question: And the “% of binding to wild-type peptide” value (ApoC3 peptide … V71I)?
Answer: The value was 54.3%.

Question: And the “% of binding to wild-type peptide” value (ApoC3 peptide … V71N)?
Answer: The value was 98.7%.

Question: And the “% of binding to wild-type peptide” value (ApoC3 peptide … D66Q)?
Answer: Its value is 0%.

Question: What about the “% of binding to wild-type peptide” value (ApoC3 peptide … V71W) of the same binder?
Answer: The value was 59.2%.

Question: And the “% of binding to wild-type peptide” value (ApoC3 peptide … D68H)?
Answer: The value was 0%.

Question: What about the “% of binding to wild-type peptide” value (ApoC3 peptide … K60T) of the same binder?
Answer: Its value is 149%.

Question: What about the “% of binding to wild-type peptide” value (ApoC3 peptide … E70C) of the same binder?
Answer: Its value is 0%.

Question: What about the “% of binding to wild-type peptide” value (ApoC3 peptide … S62T) of the same binder?
Answer: The value was 139%.

Question: And the “% of binding to wild-type peptide” value (ApoC3 peptide … L67S)?
Answer: The value was 26.5%.

Question: What about the “% of binding to wild-type peptide” value (ApoC3 peptide … S62L) of the same binder?
Answer: The value was 81%.

Question: What about the “% of binding to wild-type peptide” value (ApoC3 peptide … D68L) of the same binder?
Answer: The value was 0%.

Question: What about the “% of binding to wild-type peptide” value (ApoC3 peptide … V71L) of the same binder?
Answer: Its value is 78%.
